Source: patent US20080219962

Chain of myc-labeled Runx2 (chain, as listed by the source): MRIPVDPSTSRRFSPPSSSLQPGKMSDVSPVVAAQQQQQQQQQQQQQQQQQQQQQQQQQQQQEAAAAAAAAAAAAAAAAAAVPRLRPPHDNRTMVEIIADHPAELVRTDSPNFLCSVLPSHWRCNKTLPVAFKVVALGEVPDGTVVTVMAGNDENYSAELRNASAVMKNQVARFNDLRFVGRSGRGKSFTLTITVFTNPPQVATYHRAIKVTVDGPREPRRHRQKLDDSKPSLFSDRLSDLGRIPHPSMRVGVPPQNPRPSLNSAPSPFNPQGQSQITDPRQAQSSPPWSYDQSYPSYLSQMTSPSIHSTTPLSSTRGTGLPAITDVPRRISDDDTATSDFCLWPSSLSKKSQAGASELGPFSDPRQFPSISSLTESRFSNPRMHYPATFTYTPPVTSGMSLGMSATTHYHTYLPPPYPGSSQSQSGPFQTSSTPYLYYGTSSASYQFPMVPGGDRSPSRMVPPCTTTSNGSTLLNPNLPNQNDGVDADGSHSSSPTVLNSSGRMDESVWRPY
Chain of Smurf1 (Smad ubiquitin regulatory factor 1) (Q9HCE7 whole entry): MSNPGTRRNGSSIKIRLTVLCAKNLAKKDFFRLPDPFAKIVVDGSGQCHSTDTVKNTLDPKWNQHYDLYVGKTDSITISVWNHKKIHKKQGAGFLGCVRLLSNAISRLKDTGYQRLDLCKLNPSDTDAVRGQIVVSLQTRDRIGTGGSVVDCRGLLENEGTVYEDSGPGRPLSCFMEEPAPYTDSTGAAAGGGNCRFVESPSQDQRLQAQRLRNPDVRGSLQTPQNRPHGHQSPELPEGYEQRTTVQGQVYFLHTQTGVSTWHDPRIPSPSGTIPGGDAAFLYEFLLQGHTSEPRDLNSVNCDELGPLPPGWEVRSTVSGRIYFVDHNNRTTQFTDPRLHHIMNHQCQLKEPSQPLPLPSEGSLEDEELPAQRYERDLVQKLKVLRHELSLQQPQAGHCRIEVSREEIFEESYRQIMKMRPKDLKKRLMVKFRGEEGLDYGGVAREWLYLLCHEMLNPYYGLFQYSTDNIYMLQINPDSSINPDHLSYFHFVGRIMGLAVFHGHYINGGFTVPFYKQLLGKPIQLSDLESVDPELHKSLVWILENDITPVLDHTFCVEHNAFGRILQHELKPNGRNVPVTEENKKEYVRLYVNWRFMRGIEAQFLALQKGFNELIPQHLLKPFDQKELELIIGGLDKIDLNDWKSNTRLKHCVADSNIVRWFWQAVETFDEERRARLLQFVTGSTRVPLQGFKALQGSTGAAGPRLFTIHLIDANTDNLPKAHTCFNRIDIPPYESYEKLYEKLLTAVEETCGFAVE
Chain of Runx2-del-415-418 (chain, as listed by the source): as the sequence (chain, as listed by the source) above
Chain of Runx2-P415R (chain, as listed by the source P415R): as the sequence (chain, as listed by the source) above, with P415R counted along it
Chain of myc-labeled HDAC4 (P56524 whole entry): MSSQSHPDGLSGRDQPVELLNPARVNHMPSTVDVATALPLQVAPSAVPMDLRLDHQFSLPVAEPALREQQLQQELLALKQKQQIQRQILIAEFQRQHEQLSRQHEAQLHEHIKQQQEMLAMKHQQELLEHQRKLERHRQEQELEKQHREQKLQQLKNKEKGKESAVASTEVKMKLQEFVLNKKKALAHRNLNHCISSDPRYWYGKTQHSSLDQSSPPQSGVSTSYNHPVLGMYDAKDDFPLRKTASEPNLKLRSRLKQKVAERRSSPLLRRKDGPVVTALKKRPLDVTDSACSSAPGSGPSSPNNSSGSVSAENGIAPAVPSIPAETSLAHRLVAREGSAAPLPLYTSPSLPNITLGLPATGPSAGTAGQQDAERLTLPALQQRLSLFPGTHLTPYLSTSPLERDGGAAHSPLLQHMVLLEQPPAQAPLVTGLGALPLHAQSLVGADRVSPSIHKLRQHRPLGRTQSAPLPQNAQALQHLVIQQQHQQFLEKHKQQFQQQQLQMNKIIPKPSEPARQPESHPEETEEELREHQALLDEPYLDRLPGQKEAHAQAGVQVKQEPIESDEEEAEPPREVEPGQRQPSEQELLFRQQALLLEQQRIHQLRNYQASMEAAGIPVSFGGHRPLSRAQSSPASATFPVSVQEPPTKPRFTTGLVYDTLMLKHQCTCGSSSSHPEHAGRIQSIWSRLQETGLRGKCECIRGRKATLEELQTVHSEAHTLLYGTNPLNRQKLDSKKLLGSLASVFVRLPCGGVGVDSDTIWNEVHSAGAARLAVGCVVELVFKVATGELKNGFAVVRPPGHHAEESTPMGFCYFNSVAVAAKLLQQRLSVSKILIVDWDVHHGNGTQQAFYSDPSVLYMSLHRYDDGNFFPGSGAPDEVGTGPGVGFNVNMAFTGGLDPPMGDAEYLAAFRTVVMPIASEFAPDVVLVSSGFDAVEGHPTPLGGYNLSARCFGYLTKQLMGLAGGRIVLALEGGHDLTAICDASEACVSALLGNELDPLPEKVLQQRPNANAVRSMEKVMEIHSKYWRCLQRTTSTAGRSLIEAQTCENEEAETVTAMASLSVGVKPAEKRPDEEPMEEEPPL
Chain of myc-labeled HDAC5 (Q9UQL6 whole entry): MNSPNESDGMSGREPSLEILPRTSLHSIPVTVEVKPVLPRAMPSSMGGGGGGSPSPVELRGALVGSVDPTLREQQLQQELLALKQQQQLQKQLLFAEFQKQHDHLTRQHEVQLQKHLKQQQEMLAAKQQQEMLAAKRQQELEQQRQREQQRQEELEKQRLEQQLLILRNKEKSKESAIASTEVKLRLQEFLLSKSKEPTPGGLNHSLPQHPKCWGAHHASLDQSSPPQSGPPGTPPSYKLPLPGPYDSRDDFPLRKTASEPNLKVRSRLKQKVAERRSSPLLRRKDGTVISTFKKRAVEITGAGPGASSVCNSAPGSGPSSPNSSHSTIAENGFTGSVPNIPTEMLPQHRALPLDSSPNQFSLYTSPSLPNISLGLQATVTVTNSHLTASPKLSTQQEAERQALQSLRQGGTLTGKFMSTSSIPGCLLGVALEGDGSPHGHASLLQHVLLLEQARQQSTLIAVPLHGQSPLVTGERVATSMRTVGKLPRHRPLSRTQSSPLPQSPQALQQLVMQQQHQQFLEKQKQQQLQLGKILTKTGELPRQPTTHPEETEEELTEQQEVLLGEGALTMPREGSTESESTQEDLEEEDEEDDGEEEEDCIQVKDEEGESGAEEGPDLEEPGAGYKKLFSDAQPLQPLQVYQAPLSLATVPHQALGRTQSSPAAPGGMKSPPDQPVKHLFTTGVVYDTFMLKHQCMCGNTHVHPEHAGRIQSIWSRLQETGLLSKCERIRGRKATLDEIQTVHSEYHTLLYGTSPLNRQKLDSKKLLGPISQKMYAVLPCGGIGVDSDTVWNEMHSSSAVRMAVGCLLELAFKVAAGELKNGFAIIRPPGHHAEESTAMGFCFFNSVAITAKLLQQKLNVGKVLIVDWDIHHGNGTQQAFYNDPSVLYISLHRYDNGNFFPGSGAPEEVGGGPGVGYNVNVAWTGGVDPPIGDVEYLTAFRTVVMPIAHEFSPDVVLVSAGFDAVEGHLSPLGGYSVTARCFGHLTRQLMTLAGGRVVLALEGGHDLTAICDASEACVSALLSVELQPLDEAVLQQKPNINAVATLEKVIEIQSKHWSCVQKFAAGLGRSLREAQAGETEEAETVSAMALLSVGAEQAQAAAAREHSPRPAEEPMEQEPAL

Substance	Smurf1-mediated degradation of Runx2 (Western blot of Runx2 level) (Runx2-P415R)	Smurf1-mediated degradation of Runx2 (Western blot of Runx2 level) (Runx2-del-415-418)	Runx2 deacetylation (immunoprecipitation with anti-acetyl-lysine antibody, Western blot with anti-myc antibody) (myc-labeled Runx2)
Smurf1 (Smad ubiquitin regulatory factor 1)	Runx2-del-415-418 and Runx2-P415R were very stable, which means they were strongly resistant to Smurf1-mediated degradation	Runx2-del-415-418 and Runx2-P415R were very stable, which means they were strongly resistant to Smurf1-mediated degradation	
myc-labeled HDAC4			histone deacetylases 4 and 5 deacetylate Runx2
myc-labeled HDAC5			histone deacetylases 4 and 5 deacetylate Runx2
